Assays:
Settings in all cases: glycan lost; control: wild type
[1] = selective uptake of [3H]COE from HDL
[2] = [3H]cholesterol release from cells to HDL
[3] = flow cytometry, extracellular-domain antibody
[4] = cell surface biotinylation, immunoblot densitometry
[5] = cholesterol oxidase sensitivity, cholestenone by TLC

B1: SR-BI (scavenger receptor class B type I; CLA-1): T175A (protein)
parent chain: MGCSAKARWAAGALGVAGLLCAVLGAVMIVMVPSLIKQQVLKNVRIDPSSLSFNMWKEIPIPFYLSVYFFDVMNPSEILKGEKPQVRERGPYVYREFRHKSNITFNNNDTVSFLEYRTFQFQPSKSHGSESDYIVMPNILVLGAAVMMENKPMTLKLIMTLAFTTLGERAFMNRTVGEIMWGYKDPLVNLINKYFPGMFPFKDKFGLFAELNNSDSGLFTVFTGVQNISRIHLVDKWNGLSKVDFWHSDQCNMINGTSGQMWPPFMTPESSLEFYSPEACRSMKLMYKESGVFEGIPTYRFVAPKTLFANGSIYPPNEGFCPCLESGIQNVSTCRFSAPLFLSHPHFLNADPVLAEAVTGLHPNQEAHSLFLDIHPVTGIPMNCSVKLQLSLYMKSVAGIGQTGKIEPVVLPLLWFAESGAMEGETLHTFYTQLVLMPKVMHYAQYVLLALGCVLLLVPVICQIRSQVGAGQRAARADSHSLACWGKGASDRTLWPTAAWSPPPAAVLRLCRSGSGHCWGLRSTLASFACRVATTLPVLEGLGPSLGGGTGS
- other: transport activity [1]: decreases
- other: free cholesterol efflux [2]: decreases
- localisation_or_trafficking [3]: decreases
- localisation_or_trafficking, percent_of_wt [4]: decreases, more than 50% less vs 100
- other: plasma membrane free cholesterol redistribution [5]: decreases
